Experimental data as given in publication PMC12517307.

Molecular target: p53 (UniProt P04637)
Sequence (P04637 whole entry): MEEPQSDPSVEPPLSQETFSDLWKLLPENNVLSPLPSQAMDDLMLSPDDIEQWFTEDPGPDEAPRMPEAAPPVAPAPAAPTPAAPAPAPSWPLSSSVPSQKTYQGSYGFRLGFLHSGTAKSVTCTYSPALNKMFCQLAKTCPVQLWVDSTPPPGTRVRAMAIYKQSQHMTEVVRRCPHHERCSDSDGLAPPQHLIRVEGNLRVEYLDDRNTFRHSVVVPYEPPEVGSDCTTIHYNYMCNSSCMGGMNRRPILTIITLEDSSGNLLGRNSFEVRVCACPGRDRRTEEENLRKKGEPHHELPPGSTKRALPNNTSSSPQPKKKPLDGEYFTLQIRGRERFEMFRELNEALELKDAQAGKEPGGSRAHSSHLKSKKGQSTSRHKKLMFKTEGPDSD

p53 acetylation (IP with anti-p53, blot with anti-acetyl-lysine) in 3T3-L1 adipocytes overexpressing p53 and p300: reduction by NDN against control adipocytes; reversed by further addition of p300: 51%
Substance: p300 acetyl transferase, Q09472 1-2414
